Assay results from the supplement of paper PMC9876800.

Test system: peptide library, one residue held at a place counted from the S/T acceptor
Test: relative phosphorylation of the sub-library (ratio to the mean residue at this position); higher = residue favoured
Conditions: human
Method in brief: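 Human or orthologue kinase constructs, purified and recombinant, were incubated under kinase-specific conditions in 384-well plates with biotinylated degenerate peptide sub-libraries. Each sub-library fixed one residue at one position around a central Ser/Thr. Incubations lasted 90 min with peptides at 50 μM and 50 μM ATP spiked with γ-32P-ATP, after which spots on streptavidin membranes were phosphorimaged and quantified by densitometry. Relative sub-library phosphorylation is a ratio to the mean residue at that position.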

Sequence of MAP3K8, construct: aa30-397 (P41279 30-397, looked up): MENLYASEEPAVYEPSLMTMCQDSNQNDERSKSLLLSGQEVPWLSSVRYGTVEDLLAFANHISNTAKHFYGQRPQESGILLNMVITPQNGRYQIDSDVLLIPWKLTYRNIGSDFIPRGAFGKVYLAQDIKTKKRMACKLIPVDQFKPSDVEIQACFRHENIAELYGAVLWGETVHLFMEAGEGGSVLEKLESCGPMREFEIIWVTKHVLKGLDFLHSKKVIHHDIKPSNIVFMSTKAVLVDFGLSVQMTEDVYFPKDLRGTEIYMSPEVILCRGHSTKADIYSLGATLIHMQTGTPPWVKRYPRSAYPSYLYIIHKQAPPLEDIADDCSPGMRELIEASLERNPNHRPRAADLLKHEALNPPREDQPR
Sequence of MAP4K4, construct: aa1-328 (O95819 1-328, looked up): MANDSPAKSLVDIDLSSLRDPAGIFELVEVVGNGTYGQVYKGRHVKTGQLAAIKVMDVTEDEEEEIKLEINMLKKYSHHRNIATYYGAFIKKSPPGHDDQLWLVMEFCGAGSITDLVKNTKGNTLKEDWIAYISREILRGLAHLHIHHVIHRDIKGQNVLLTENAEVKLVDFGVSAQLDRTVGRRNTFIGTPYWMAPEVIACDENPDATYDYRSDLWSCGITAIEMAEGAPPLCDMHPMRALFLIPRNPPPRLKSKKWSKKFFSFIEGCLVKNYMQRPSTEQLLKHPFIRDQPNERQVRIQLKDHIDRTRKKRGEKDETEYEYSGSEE
Sequence of MAP4K2, construct: Full length (Q12851 whole entry, looked up): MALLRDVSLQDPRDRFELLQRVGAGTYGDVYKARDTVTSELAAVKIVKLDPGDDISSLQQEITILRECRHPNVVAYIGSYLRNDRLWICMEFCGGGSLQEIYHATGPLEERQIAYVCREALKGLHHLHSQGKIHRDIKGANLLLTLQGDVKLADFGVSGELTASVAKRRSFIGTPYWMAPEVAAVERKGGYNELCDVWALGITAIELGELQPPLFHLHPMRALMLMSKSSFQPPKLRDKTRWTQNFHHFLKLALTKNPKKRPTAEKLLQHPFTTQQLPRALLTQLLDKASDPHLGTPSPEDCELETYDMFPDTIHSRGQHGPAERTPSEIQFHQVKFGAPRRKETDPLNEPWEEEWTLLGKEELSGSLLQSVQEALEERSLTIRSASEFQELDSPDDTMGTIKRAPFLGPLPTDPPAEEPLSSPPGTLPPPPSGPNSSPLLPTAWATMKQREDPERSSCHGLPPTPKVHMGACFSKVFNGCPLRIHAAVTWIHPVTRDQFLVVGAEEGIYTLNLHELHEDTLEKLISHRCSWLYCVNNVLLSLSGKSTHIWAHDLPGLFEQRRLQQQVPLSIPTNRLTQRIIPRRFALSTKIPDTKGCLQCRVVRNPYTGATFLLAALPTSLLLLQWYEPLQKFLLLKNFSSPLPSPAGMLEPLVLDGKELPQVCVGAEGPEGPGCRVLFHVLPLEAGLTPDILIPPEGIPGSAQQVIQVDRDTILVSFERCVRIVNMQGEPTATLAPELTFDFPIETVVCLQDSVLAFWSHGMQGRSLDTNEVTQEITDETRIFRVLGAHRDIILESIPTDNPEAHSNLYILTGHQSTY

MAP3K3, construct: Full length (from UniProt Q99759)
relative phosphorylation
Conditions | at +1 | at +2 | at +3 | at +4 | at -1 | at -2 | at -3 | at -4 | at -5
A fixed | 0.713 | 0.684 | 0.711 | 0.953 | 0.837 | 0.924 | 0.739 | 0.897 | 0.956
D fixed | 0.304 | 0.643 | 0.767 | 0.758 | 1.28 | 1.65 | 1.39 | 1.38 | 1.12
E fixed | 0.322 | 0.539 | 0.758 | 1.04 | 1.01 | 0.958 | 1.37 | 1.23 | 1.01
F fixed | 1.32 | 0.884 | 1.38 | 0.916 | 0.902 | 1.09 | 0.946 | 0.955 | 1.11
G fixed | 0.603 | 0.488 | 0.904 | 0.904 | 1.25 | 0.969 | 1.33 | 0.913 | 0.916
H fixed | 0.779 | 2.55 | 1.03 | 0.859 | 1.24 | 0.984 | 0.918 | 0.982 | 1.13
I fixed | 1.77 | 0.745 | 1.01 | 0.961 | 0.747 | 1.02 | 0.876 | 0.892 | 0.869
K fixed | 0.516 | 1.42 | 1.19 | 1.7 | 1.18 | 0.591 | 0.998 | 1.1 | 1.15
L fixed | 1.49 | 0.808 | 1.2 | 0.821 | 0.922 | 0.794 | 0.851 | 0.93 | 0.895
M fixed | 1.74 | 1.05 | 1.11 | 0.953 | 0.943 | 1.01 | 0.902 | 1.05 | 0.944
N fixed | 0.48 | 1.03 | 0.992 | 0.962 | 1.3 | 0.932 | 1.04 | 1.01 | 1.03
P fixed | 0.34 | 0.255 | 0.361 | 0.982 | 0.482 | 0.728 | 0.723 | 0.736 | 0.744
Q fixed | 0.686 | 0.898 | 0.75 | 1.07 | 0.834 | 0.838 | 0.77 | 0.741 | 0.842
R fixed | 0.796 | 1.67 | 1.15 | 1.35 | 1.54 | 0.915 | 1.28 | 1.09 | 1.05
V fixed | 1.43 | 0.841 | 0.861 | 0.734 | 0.684 | 1.13 | 0.971 | 0.916 | 0.925
W fixed | 2.59 | 0.994 | 1.57 | 1.02 | 0.849 | 1.15 | 0.981 | 1.07 | 1.21
Y fixed | 1.11 | 1.5 | 1.26 | 1.02 | 1.01 | 1.31 | 0.912 | 1.1 | 1.08
pThr fixed | 1.12 | 1.39 | 0.824 | 1.37 | 1.23 | 2.17 | 2.37 | 1.82 | 2.48
pTyr fixed | 0.626 | 0.691 | 1.06 | 0.783 | 1.56 | 2.52 | 1.7 | 1.02 | 1.63

MAP3K8, construct: aa30-397 (from UniProt P41279)
relative phosphorylation
Conditions | at +1 | at +2 | at +3 | at +4 | at -1 | at -2 | at -3 | at -4 | at -5
A fixed | 0.997 | 0.962 | 0.971 | 1.12 | 0.924 | 0.801 | 0.815 | 1.17 | 1.27
D fixed | 0.537 | 0.83 | 0.819 | 1.27 | 1.65 | 2 | 1.57 | 1.62 | 1.47
E fixed | 0.66 | 1.12 | 0.961 | 1.44 | 1.2 | 1.5 | 1.62 | 1.51 | 1.27
F fixed | 1.1 | 0.338 | 0.599 | 0.523 | 0.449 | 0.976 | 0.535 | 0.489 | 0.575
G fixed | 1.23 | 0.736 | 1.2 | 1.09 | 1.31 | 1.23 | 1.36 | 1.51 | 1.41
H fixed | 0.869 | 1.17 | 0.465 | 0.83 | 1.16 | 1.18 | 1.16 | 1.16 | 1.33
I fixed | 0.847 | 0.952 | 0.832 | 0.655 | 0.336 | 0.554 | 0.382 | 0.479 | 0.435
K fixed | 1.31 | 1.61 | 1.57 | 1.4 | 1.37 | 0.653 | 1.08 | 1.11 | 1.47
L fixed | 0.9 | 0.938 | 1.22 | 0.771 | 0.746 | 0.816 | 0.59 | 0.55 | 0.576
M fixed | 1.29 | 0.697 | 1.09 | 0.877 | 0.572 | 0.789 | 0.595 | 0.676 | 0.499
N fixed | 0.996 | 1.67 | 1.03 | 0.997 | 1.5 | 1.35 | 1.32 | 1.35 | 1.25
P fixed | 0.299 | 0.499 | 0.522 | 1.72 | 1.11 | 0.927 | 1.52 | 1.32 | 1.31
Q fixed | 1.36 | 1.9 | 1.21 | 1.09 | 1.28 | 0.913 | 1.16 | 1.01 | 0.943
R fixed | 1.31 | 1.5 | 1.73 | 1.02 | 1.41 | 0.717 | 1.15 | 1.05 | 1.08
V fixed | 1.07 | 1.25 | 0.992 | 0.809 | 0.601 | 0.519 | 0.446 | 0.536 | 0.694
W fixed | 0.806 | 0.382 | 0.78 | 0.689 | 0.591 | 0.805 | 0.835 | 0.707 | 0.834
Y fixed | 1.41 | 0.438 | 1.01 | 0.688 | 0.782 | 1.28 | 0.856 | 0.761 | 0.575
pThr fixed | 1.64 | 1.48 | 0.934 | 1.43 | 1.44 | 1.43 | 1.5 | 1.4 | 1.1
pTyr fixed | 0.716 | 1.83 | 1.08 | 1.17 | 1.51 | 0.871 | 1.49 | 0.882 | 1.1

MAP4K2, construct: Full length (from UniProt Q12851)
relative phosphorylation
Conditions | at +1 | at +2 | at +3 | at +4 | at -1 | at -2 | at -3 | at -4 | at -5
A fixed | 0.468 | 0.739 | 0.703 | 0.786 | 0.858 | 1.1 | 0.767 | 0.881 | 0.946
D fixed | 0.266 | 0.979 | 0.592 | 0.804 | 0.927 | 0.912 | 0.852 | 1.09 | 1.01
E fixed | 0.259 | 0.759 | 0.52 | 0.815 | 0.595 | 0.575 | 0.769 | 1.03 | 0.889
F fixed | 1.07 | 0.58 | 0.762 | 0.866 | 0.722 | 1.27 | 0.852 | 1.09 | 1.12
G fixed | 0.742 | 0.986 | 0.999 | 1.07 | 1.61 | 1.19 | 1.45 | 1.37 | 1.26
H fixed | 0.576 | 1.03 | 1.1 | 1.06 | 1.17 | 1.29 | 1.09 | 0.999 | 1.07
I fixed | 1.6 | 0.396 | 0.506 | 0.662 | 0.251 | 0.574 | 0.457 | 0.596 | 0.629
K fixed | 0.519 | 2.31 | 2.03 | 1.65 | 1.48 | 0.754 | 1.69 | 1.05 | 1.18
L fixed | 3.02 | 0.649 | 0.694 | 0.82 | 0.868 | 0.634 | 0.558 | 0.688 | 0.662
M fixed | 3.03 | 0.78 | 0.773 | 0.938 | 1.03 | 0.778 | 0.706 | 0.852 | 0.858
N fixed | 0.852 | 1.24 | 1.26 | 1.2 | 1.88 | 1.14 | 1.28 | 0.955 | 0.971
P fixed | 0.398 | 1.21 | 1.29 | 1.03 | 0.954 | 1.09 | 1.3 | 1.38 | 1.12
Q fixed | 0.581 | 1.11 | 0.996 | 1.22 | 1.09 | 0.908 | 1.05 | 0.921 | 0.834
R fixed | 0.55 | 2.4 | 2.41 | 1.41 | 1.43 | 1.01 | 1.51 | 1.12 | 1.24
V fixed | 0.749 | 0.486 | 0.583 | 0.665 | 0.311 | 0.66 | 0.438 | 0.596 | 0.765
W fixed | 1.43 | 0.652 | 1 | 1.15 | 0.765 | 1.38 | 1.19 | 1.29 | 1.28
Y fixed | 0.892 | 0.689 | 0.783 | 0.866 | 1.05 | 1.75 | 1.04 | 1.1 | 1.16
pThr fixed | 1.48 | 1.36 | 1.3 | 0.836 | 0.698 | 1.24 | 1.13 | 1.2 | 1.27
pTyr fixed | 0.518 | 0.636 | 0.953 | 0.756 | 0.759 | 0.98 | 1.08 | 1.11 | 1.15

MAP4K4, construct: aa1-328 (from UniProt O95819)
relative phosphorylation
Conditions | at +1 | at +2 | at +3 | at +4 | at -1 | at -2 | at -3 | at -4 | at -5
A fixed | 0.704 | 0.925 | 0.833 | 1.06 | 1.11 | 1.09 | 1.06 | 1.03 | 1.31
D fixed | 0.182 | 0.658 | 0.379 | 0.734 | 0.805 | 0.726 | 0.861 | 0.82 | 0.983
E fixed | 0.181 | 0.553 | 0.325 | 0.487 | 0.423 | 0.544 | 0.672 | 0.913 | 0.714
F fixed | 0.947 | 0.616 | 0.674 | 0.705 | 0.809 | 1.41 | 0.966 | 0.943 | 0.879
G fixed | 0.648 | 1 | 0.812 | 1.2 | 1.65 | 1.07 | 1.23 | 1.08 | 1.27
H fixed | 0.927 | 1.13 | 1.03 | 1.11 | 1.35 | 1.21 | 1.3 | 1.14 | 1.11
I fixed | 1.72 | 0.567 | 0.575 | 0.689 | 0.42 | 0.804 | 0.7 | 0.744 | 0.807
K fixed | 0.896 | 2.26 | 2.37 | 2.03 | 1.27 | 0.792 | 1.16 | 1.1 | 1.18
L fixed | 2.32 | 0.728 | 0.734 | 0.785 | 0.941 | 0.776 | 0.809 | 0.808 | 0.752
M fixed | 2.15 | 0.827 | 0.681 | 0.766 | 1.15 | 0.907 | 0.923 | 1.04 | 0.841
N fixed | 0.688 | 0.905 | 0.823 | 0.956 | 1.17 | 0.952 | 1.09 | 0.929 | 0.843
P fixed | 0.32 | 1.02 | 0.976 | 1.18 | 0.742 | 0.749 | 0.982 | 1 | 1.22
Q fixed | 0.645 | 1.06 | 0.957 | 1.06 | 0.976 | 0.821 | 0.979 | 0.989 | 0.936
R fixed | 0.851 | 2.49 | 3.56 | 1.97 | 1.41 | 0.934 | 1.18 | 1.16 | 1.13
V fixed | 1.2 | 0.694 | 0.653 | 0.775 | 0.587 | 0.852 | 0.583 | 0.894 | 0.909
W fixed | 1.6 | 0.756 | 0.871 | 0.823 | 0.892 | 1.42 | 1.27 | 1.28 | 1.09
Y fixed | 1.02 | 0.806 | 0.746 | 0.669 | 1.28 | 1.94 | 1.22 | 1.13 | 1.04
pThr fixed | 0.465 | 0.462 | 0.606 | 0.607 | 0.373 | 0.608 | 0.839 | 0.961 | 0.998
pTyr fixed | 0.306 | 0.401 | 0.444 | 0.434 | 0.717 | 0.685 | 1.01 | 0.868 | 0.837
